This note sets out measurements from US20230129258A1, “HETEROTANDEM BICYCLIC PEPTIDE COMPLEXES” (BicycleTx Limited, priority 2019, published 2023).

The target in the experiment is CD137 on Jurkat reporter cells (Promega kit CS196005) (UniProt Q07011). As to the kind of experiment: cell-based or functional assay.

Starred links: 1 amine or outer side, 2 acyl side, 3 side chain; linkers in the order of their positions; H or OH if unused. Positions of bridges follow the written chain, without caps; N, C: chain ends. Non-standard residues stand in square brackets, D forms with d. Chains are numbered I, II in the order given. No end group written: not given here. *: point of attachment. TATA = O=C(CC[*:1])N1CN(C(=O)CC[*:2])CN(C(=O)CC[*:3])C1; d1Nal = N[C@H](Cc1cccc2ccccc12)C(=O)O; Hyp = O=C(O)[C@@H]1C[C@@H](O)CN1; hArg = N=C(N)NCCCC[C@H](N)C(=O)O; tBuAla = CC(C)(C)C[C@H](N)C(=O)O; dK(PYA) = not defined here; NMeA = CN[C@@H](C)C(=O)O; Nle = CCCC[C@H](N)C(=O)O; Pent4ynoyl = C#CCCC(=O)*; Mpa = O=C(O)CCS

Chain of CD137 on Jurkat reporter cells (Promega kit CS196005) (Q07011 24-255 limits assumed): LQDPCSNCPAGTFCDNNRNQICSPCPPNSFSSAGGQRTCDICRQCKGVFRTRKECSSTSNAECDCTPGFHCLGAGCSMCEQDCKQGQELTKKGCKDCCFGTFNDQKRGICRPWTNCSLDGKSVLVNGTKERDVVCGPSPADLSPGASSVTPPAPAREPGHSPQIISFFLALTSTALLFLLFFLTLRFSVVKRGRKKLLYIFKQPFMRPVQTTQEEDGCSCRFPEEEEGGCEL

B1: BCY13138 (peptide)
peptide 1: A[hArg]DC[Hyp]LVNPLCLEP[dD]WTC
peptide 2: [Mpa][tBuAla]PE[dK(PYA)]PYCFADPY[Nle]C
modifications: linker I:4-I:11-I:18, II:1-II:8-II:15 via TATA (inferred); not fully specified (N-terminus); reading uncertain; also: linker joins chain 1 to two chain 2 copies via PYA triazoles
B1: the EC50 (nM), PC3 co-culture was found to be 0.17 nM and the Emax (fold induction over background), PC3 (fold over background) stood at 32.6.

B2: heterotandem bicyclic peptide complex BCY12491 (peptide)
peptide 1: A[hArg]DC[Hyp]LVNPLCLHP[dD]W[hArg]C
peptide 2: Ac-C[tBuAla]PE[dK](Pent4ynoyl)PYCFADPY[Nle]CA
modifications: linker I:4-I:11-I:18, II:1-II:8-II:15 via TATA (inferred); also: N-(acid-PEG3)-N-bis(PEG3-azide) linker at chain 1 N-terminus, joined to dLys(PYA)4 of two BCY8928 chains (1:2 complex)
For B2, the Fold Improvement over BCY9173, EC50, PC3 is 2.3 fold and the Fold Improvement over Emax (BCY9173), PC3 was 1.8 fold.

B3: BCY12724 (peptide)
peptide 1: A[hArg]DC[Hyp]LVNPLCLHP[dD]W[hArg]C
peptide 2: Ac-C[tBuAla]PE[dK(PYA)]PYCFADPY[Nle]C
modifications: linker I:4-I:11-I:18, II:1-II:8-II:15 via TATA; not fully specified (bridges); reading uncertain; also: two CD137 bicycles per complex (EphA2:CD137 1:2)
With B3, the Fold Improvement over BCY9173, EC50, PC3 turned out to be 1.1 fold and the Fold Improvement over Emax (BCY9173), PC3 was 1.9 fold.

B4: BCY14052 (peptide)
peptide 1: AXDCXLVNPLCLFPDWXC
peptide 2: CXPEXPYCFADPYXCA
modifications: BCY8928: Ac-(SEQ ID NO: 11)-A; TATA; linker at dLys(PYA)4; BCY13920: A[HArg]D-(SEQ ID NO: 159); TATA; linker at N-terminus
B4 registered a Fold Improvement over BCY9173, EC50, PC3 of 4.16 fold and a Fold Improvement over Emax (BCY9173), PC3 of 1.89 fold.

B5: BCY13140 (peptide)
peptide 1: A[hArg]DC[Hyp]LVNPLCLEP[dD]WTC
peptide 2: [Mpa][tBuAla]EE[dK](Pent4ynoyl)PYCFADPY[Nle]C
modifications: linker I:4-I:11-I:18, II:1-II:8-II:15 via TATA; not fully specified (N-terminus); also: linker joins chain 1 to two chain 2 copies via PYA triazoles
In turn, B5 displayed an EC50 (nM), PC3 co-culture of 0.12 nM and an Emax (fold induction over background), PC3 (fold over background) of 46.7.

B6: BCY13139 (peptide)
peptide 1: A[hArg]DC[Hyp]LVNPLCLHP[dD]W[hArg]C
peptide 2: [Mpa][tBuAla]EE[dK](Pent4ynoyl)PYCFADPY[Nle]C
modifications: linker I:4-I:11-I:18, II:1-II:8-II:15 via TATA; not fully specified (N-terminus); also: linker joins chain 1 to two chain 2 copies via PYA triazoles
B6 came in with an EC50 (nM), PC3 co-culture of 0.16 nM and an Emax (fold induction over background), PC3 (fold over background) of 43.8.

B7: BCY13270 (peptide)
peptide 1: A[hArg]DC[Hyp]LVNPLCLHP[d1Nal]W[hArg]C
peptide 2: Ac-C[tBuAla]PE[dK](Pent4ynoyl)PYCFADPY[Nle]CA
modifications: linker I:4-I:11-I:18, II:1-II:8-II:15 via TATA; not fully specified (N-terminus, bridges); also: linker joins chain 1 to two chain 2 copies via PYA triazoles
As to B7, the EC50 (nM), PC3 co-culture was determined as 0.1 nM and the Emax (fold induction over background), PC3 (fold over background) was determined as 42.5.

B8: BCY13276 (peptide)
peptide 1: [NMeA][hArg]DC[Hyp]LVNPLCLEP[dD]WTC
peptide 2: Ac-C[tBuAla]PE[dK](Pent4ynoyl)PYCFADPY[Nle]CA
modifications: linker I:4-I:11-I:18, II:1-II:8-II:15 via TATA; not fully specified (N-terminus, bridges); also: linker joins chain 1 to two chain 2 copies via PYA triazoles
As for B8, the EC50 (nM), PC3 co-culture was 0.1 nM and the Emax (fold induction over background), PC3 (fold over background) was found to be 50.5.

B9: BCY13275 (peptide)
peptide 1: [NMeA][hArg]DC[Hyp]LVNPLCLHP[dD]W[hArg]C
peptide 2: Ac-C[tBuAla]PE[dK](Pent4ynoyl)PYCFADPY[Nle]CA
modifications: linker I:4-I:11-I:18, II:1-II:8-II:15 via TATA; not fully specified (N-terminus, bridges); also: linker joins chain 1 to two chain 2 copies via PYA triazoles
Molecule B9 came in with an EC50 (nM), PC3 co-culture of 0.08 nM and an Emax (fold induction over background), PC3 (fold over background) of 47.5.

B10: BCY12723 (peptide)
peptide 1: A[hArg]DC[Hyp]LVNPLCLHP[dD]W[hArg]C
peptide 2: Ac-C[tBuAla]EE[dK(PYA)]PYCFADPY[Nle]C
modifications: linker I:4-I:11-I:18, II:1-II:8-II:15 via TATA; not fully specified (bridges); reading uncertain; also: two CD137 bicycles per complex (EphA2:CD137 1:2)
As to B10, the Fold Improvement over BCY9173, EC50, PC3 is 2.2 fold and the Fold Improvement over Emax (BCY9173), PC3 is 1.8 fold.

B11: BCY14050 (peptide)
peptide 1: AXDCXLVNPLCLXPDWXC
peptide 2: CXPEXPYCFADPYXCA
modifications: BCY8928: Ac-(SEQ ID NO: 11)-A; TATA; linker at dLys(PYA)4; BCY13918: A[HArg]D-(SEQ ID NO: 157); TATA; linker at N-terminus
In turn, B11 registered a Fold Improvement over BCY9173, EC50, PC3 of 2.05 fold and a Fold Improvement over Emax (BCY9173), PC3 of 1.91 fold.

B12: BCY14051 (peptide)
peptide 1: AXDCXLVNPLCLXPDWXC
peptide 2: CXPEXPYCFADPYXCA
modifications: BCY8928: Ac-(SEQ ID NO: 11)-A; TATA; linker at dLys(PYA)4; BCY13919: A[HArg]D-(SEQ ID NO: 158); TATA; linker at N-terminus
On to B12, for which the Fold Improvement over BCY9173, EC50, PC3 came out at 3.15 fold and the Fold Improvement over Emax (BCY9173), PC3 is 1.88 fold.

B13: BCY13279 (peptide)
peptide 1: Ac-C[Hyp]LVNPLCLHP[dD]W[hArg]CL[dH]G[dK]
peptide 2: Ac-C[tBuAla]PE[dK](Pent4ynoyl)PYCFADPY[Nle]CA
modifications: linker I:1-I:8-I:15, II:1-II:8-II:15 via TATA (inferred); also: linker N-(acid-PEG3)-N-bis(PEG3-azide) on C-terminal dK of chain 1, joins two chain 2 copies via PYA triazoles
As for B13, the Fold Improvement over BCY9173, EC50, PC3 was 4.74 fold and the Fold Improvement over Emax (BCY9173), PC3 was 2.08 fold.

B14: BCY12725 (peptide)
peptide 1: A[hArg]DC[Hyp]LVNPLCLHP[dD]W[hArg]C
peptide 2: Ac-C[tBuAla]PE[dK(PYA)]PYCFANPY[Nle]C
modifications: linker I:4-I:11-I:18, II:1-II:8-II:15 via TATA; not fully specified (bridges); reading uncertain; also: two CD137 bicycles per complex (EphA2:CD137 1:2)
For the molecule B14, the Fold Improvement over BCY9173, EC50, PC3 came out at 0.1 fold and the Fold Improvement over Emax (BCY9173), PC3 amounted to 0.7 fold.
